Assay [1] relates to differentiated human macrophages. The assay can be described thus: TN/HMGB1-induced formation of ASC foci/speck. It counts as cell-based. The note with it: dynasore 20.0 μM, 16 h. As to the method:
(§1) FIG. 12(A)-12(C): TN and HMGB1 cooperate to induce macrophage cell death. 12(A) Thioglycolate-elicited murine peritoneal macrophages were treated with TN (10 μg/ml) in the absence or presence of HMGB1 (0.5 μg/ml), TN-specific mAb8 (65.0 μg/ml), or dynasore (10.0 μM) for 16 h, and cell viability was assessed by trypan blue dye exclusion or LDH release assay. *, P<0.05 versus negative control; #, P<0.05 versus “+TN” or “+HMGB1” alone; &, P<0.05 versus positive control “+TN+HMGB1” group, n=6-10 per group. 12(B) Murine peritoneal macrophages were stimulated with TN (10 μg/ml) in the absence or presence of HMGB1 (1.0 μg/ml) for 16 h, and the cell-conditioned medium was assayed for ASC release by Western blotting analysis. SDS-PAGE gel indicated equivalent sampling loading. Bar graph represented average of three samples (n=3) from two independent experiments (N=2). *, P<0.05 versus negative controls (“−HMGB1−TN”); #, P<0.05 versus positive control (“+HMGB1” or “+TN” alone). 12(C) Differentiated human macrophages were stimulated with HMGB1 (1.0 μg/ml) and TN (10.0 μg/ml) in the absence or presence of TN-specific mAb (40 μg/ml) or dynasore (20.0 μM) for 16 h. Subsequently, cells were immunostained with Alexa Fluor 594-conjugated anti-ASC IgGs. Scale bars: 10 μm. Narrow arrows point to minute ASC puncta; Wide arrow points to a larger ASC speck. […]

Assay [2] concerns Murine macrophage-like RAW 264.7 cells. The assay can be described thus: Cellular HMGB1 and TN uptake. It is filed as cell-based, mouse. The note with it: 2 h. As to the method: Highly purified recombinant HMGB1 and TN protein were labeled with either Alexa Fluor 555 or Alexa Fluor 488 using respective labeling kit (Cat. # A30007 or Cat. # A30006, Thermo Fisher Scientific) according to the manufacturer's instructions. Murine macrophage-like RAW 264.7 cells on cover slips were incubated with unlabeled or Alexa Fluor 555-labeled HMGB1 in the absence or presence of unlabeled or Alexa Fluor 488-labeled TN at 37° C. for 2 h. An endocytosis inhibitor, Dynasore (8.0 μM), or mAb8 (60 μg/ml) were added 30 min before the addition of HMGB1 or TN. Following extensive washings with 1×PBS, cells were fixed with 4% formalin for 20 min at room temperature and mounted on the slide using Vectashield Mounting Medium for Fluorescence with DAPI (Vector Laboratories, Inc., Cat. # H-1200) for nuclei staining (blue). Endocytic uptake of Alexa Fluor 555-labeled HMGB1 (red) or Alexa Fluor 488-labeled TN (green) was visualized via Carl Zeiss fluorescence microscope. To quantitate cellular uptake of HMGB1 and TN, macrophage cultures were incubated with recombinant HMGB1 and TN either individually, or in combination, at 37° C. for 2 h. Following extensive washing, cellular levels of HMGB1 and TN were measured by Western blotting analysis with reference to a house-keeping protein, β-actin.

In assay [3] the test system is murine peritoneal macrophages. Nature of the assay: TN/HMGB1-induced macrophage cell death (trypan blue, LDH release). It is filed as cell-based, mouse. The note with it: dynasore 10.0 μM, 16 h. As to the method: as §1
On the technique in general: LDH in the medium is a marker of cell lysis.

The next assay deals with primary human monocytes. The assay can be described thus: Cytokine Antibody Array of human monocyte cultures. It counts as cell-based. The settings on record: TN 10 μg/ml, 16 h. As to the method:
(§2) Primary peritoneal macrophages were isolated from young male Balb/c (7-8 wks, 20-25 g) at 3 days after intraperitoneal injection of 2 ml thioglycollate broth (4%) as previously described. Briefly, mice were sacrificed by CO2 asphyxiation, and the abdomen region was immediately cleaned with 70% ethanol before making a small excision to expose the abdominal wall, and to insert a catheter into viscera-free pocket to wash out peritoneal macrophages with sucrose solution (11.6%, 7.0 ml). Human blood was purchased from the New York Blood Center (Long Island City, NY, USA), and human peripheral blood mononuclear cells (HuPBMCs) were isolated by density gradient centrifugation through Ficoll (Ficoll-Paque PLUS, Pharmacia, Piscataway, NJ, USA) as previously described. Murine macrophages and human monocytes (HuBPMCs) were cultured in DMEM supplemented with 1% penicillin/streptomycin and 10% FBS or 10% human serum. When reaching 70-80% confluence, adherent cells were gently washed with, and immediately cultured in, OPTI-MEM I before stimulating with crude LPS, purified SAA, HMGB1, in the absence or presence of human TN. The intracellular and extracellular levels of HMGB1, TN, or various other cytokines/chemokines were respectively determined by Western blotting analysis, and Cytokine Antibody Arrays as previous described. […]

Another assay concerns macrophage cultures. Nature of the assay: Cytokine Antibody Array of macrophage cultures. The note with it: even at 20 μg/ml. It is filed as cell-based, mouse. As to the method: as §2
The test system of assay [4] is murine peritoneal macrophages. Nature of the assay: LPS- or SAA-induced HMGB1 release in murine macrophages. The settings on record: 16 h. It counts as cell-based, mouse. As to the method: (§3) Primary peritoneal macrophages were isolated from young male Balb/c (7-8 wks, 20-25 g) at 3 days after intraperitoneal injection of 2 ml thioglycollate broth (4%) as previously described. Briefly, mice were sacrificed by CO2 asphyxiation, and the abdomen region was immediately cleaned with 70% ethanol before making a small excision to expose the abdominal wall, and to insert a catheter into viscera-free pocket to wash out peritoneal macrophages with sucrose solution (11.6%, 7.0 ml). […] The intracellular and extracellular levels of HMGB1, TN, or various other cytokines/chemokines were respectively determined by Western blotting analysis, and Cytokine Antibody Arrays as previous described.
(§4) The levels of TN in human or murine serum were determined by Western blotting analysis using commercial rabbit mAb against the C-terminus of human TN (Abcam) or our home-made murine mAbs (mAb8) against recombinant human TN. Similarly, the cellular and extracellular levels of TN and HMGB1 in murine macrophage and human monocyte cultures were determined by Western blotting analysis using rabbit polyclonal or monoclonal antibodies. […] The relative band intensity was quantified using the UN-SCAN-IT Gel Analysis Software Version 7.1 (Silk Scientific Inc., Orem, UT, USA).

A further assay relates to human blood monocytes. Nature of the assay: LPS- or SAA-induced HMGB1 release in human monocytes. It is filed as cell-based. The note with it: 16 h. As to the method: as §3, §4
Assay [5] relates to murine peritoneal macrophages. Nature of the assay: ASC release in macrophage cultures (Western blotting). The note with it: 16 h. It counts as cell-based, mouse. As to the method: as §3, §4
For orientation: In western blotting, separated proteins are transferred to a membrane and probed.

The target of the next assay is T1, HMGB1 (Rattus norvegicus, UniProt P63159).
T1 construct: made in house; host or cells: E. coli BL21 (DE3) pLysS
T1 sequence (P63159 1-215): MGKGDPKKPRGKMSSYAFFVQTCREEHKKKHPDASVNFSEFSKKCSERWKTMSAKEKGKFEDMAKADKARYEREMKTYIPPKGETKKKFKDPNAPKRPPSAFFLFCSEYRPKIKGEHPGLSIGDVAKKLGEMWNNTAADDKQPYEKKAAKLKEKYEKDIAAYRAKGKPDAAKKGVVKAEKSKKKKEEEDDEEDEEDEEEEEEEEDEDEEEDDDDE
Nature of the assay: OpenSPR assay of TN/HMGB1 interaction. It is filed as binding. The note with it: TN or HMGB1 conjugated to the sensor chip. From the text:
The cDNA encoding for rat HMGB1 was cloned onto a pCAL-n vector, and the recombinant CBP-HMGB1 (rHMGB1) was expressed in E. coli BL21 (DE3) pLysS cells as previously described. Recombinant HMGB1 containing a ˜3 kDa calmodulin-binding peptide tag (CBP-HMGB1 fusion protein, 33 kDa) was expressed in E. coli, and purified to remove contaminating endotoxin by Triton X-114 extraction as previously described. Recombinant human TN corresponding to residue 22-202 amino acid (without the 21-amino acid leader signal sequence) with a C-terminal histidine tag were expressed in E. coli BL21 (DE3) pLysS cells and purified by histidine-affinity and Triton X-114 extraction to remove contaminating endotoxins. Recombinant TN and HMGB1 proteins were tested for LPS content by the chromogenic Limulus amebocyte lysate assay (Endochrome; Charles River), and the endotoxin content was less than 0.01 U per microgram of recombinant proteins.
We employed the Nicoya Lifesciences gold-nanoparticle-based Open Surface Plasmon Resonance (OpenSPR) technology (Kitchener, ON, Canada) to characterize protein-protein interactions following the manufacturer's instructions. […] The response units were recorded over time, and the binding affinity was estimated as the equilibrium dissociation constant KD using the Trace Drawer Kinetic Data Analysis v.1.6.1. […]

Assay [6] concerns Balb/C mice subjected to CLP sepsis. The assay can be described thus: Sepsis-induced tissue injury (lung histology, serum liver enzymes) after CLP. The note with it: TN supplementation, 2 and 24 h post CLP. It counts as in vivo, mouse.
Where [7] appears, read: Dynasore 8.0 μM or mAb8 60 μg/ml.

Turning to `O=C(N/N=C/c1ccc(O)c(O)c1)c1cc2ccccc2cc1O` [dynasore], the “TN/HMGB1 induced ASC aggregation” value in [1] was “inhibit”. For the same molecule, in assay [2] (setting [7]), the “HMGB1-enhanced cellular uptake of TN” value is listed as “similarly attenuated” and the “TN-mediated enhancement of cellular HMGB1 uptake” value was “prevented”. In addition, in [3], the “TN/HMGB1 induced cell death” value is reported as “inhibit”.

B1: tetranectin (protein, UniProt P05452 22-202, looked up)
Tetranectin: EPPTQKPKKIVNAKKDVVNTKMFEELKSRLDTLAQEVALLKEQQALQTVCLKGTKVHMKCFLAFTQTKTFHEASEDCISRGGTLGTPQTGSENDALYEYLRQSVGNEAEIWLGLNDMAAEGTWVDMTGARIAYKNWETEITAQPDGGKTENCAVLSGAANGKWFDKRCRDQLPYICQFGIV
Turning to B1, in the assay on primary human monocytes, the “release of ENA-78 (CXCL5, LIX)” value was “reproducibly and specifically induced the release”; the “release of GRO (CXCL1 or KC)” value was “reproducibly and specifically induced the release”. In the assay with macrophage cultures, the “LPS-, SAA-, or HMGB1-induced release of other cytokines and chemokines” value is “did not inhibit”. Moreover, in [4], the “LPS- and SAA-induced HMGB1 release” value is “dose-dependently inhibited”. In addition, in the assay on human blood monocytes, the “LPS- and SAA-induced HMGB1 release” value was “dose-dependently inhibited”. Also, the HMGB1 cellular uptake result in [2] (TN at physiological concentrations) is listed as “markedly enhanced”. Also, in [5], the “ASC release, added individually” value is on record as “weakly induced” and the “ASC release, co-addition with HMGB1” value is listed as “synergistic enhancement”. In addition, the “estimated equilibrium disassociation constant (KD) between TN and HMGB1” value in the assay with HMGB1 is 1.21 to 2.88 nM. In [6] (ALT and AST at 28 h), the “sepsis-induced injury in the liver” value is “marked attenuation”. In addition, the “sepsis-induced injury in the lung” value in assay [6] (analysis at 28 h) was “marked attenuation”.
